The star is where a group is joined. Biotin = O=C1N[C@H]2[C@H](CS[C@H]2CCCCC(=O)*)N1
Target: T1, mature myostatin (UniProt O08689 268-376, limits assumed)
T1 construct: mature; also called MSTN
T1 sequence (looked up): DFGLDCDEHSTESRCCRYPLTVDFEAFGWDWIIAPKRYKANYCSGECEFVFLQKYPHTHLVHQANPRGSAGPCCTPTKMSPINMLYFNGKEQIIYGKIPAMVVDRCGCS
Experiment: ELISA, biotinylated peptide on coated myostatin, with or without zinc
Method: For this, 3 μl of myostatin at a concentration of 100 ng/μl are taken up in 50 μl of carbonate buffer and added to each well of the assay plate (R&D Systems DY990). After an overnight incubation at 4° C., the plate is washed with 100 μl of PBS-Tween (0.05% Tween 20), then the blocking step to saturate non-specific sites is carried out for 2 hours at room temperature with 100 μl of PBS and 6% of milk per well. Five successive washes with 200 μl of PBS-Tween (0.05% Tween 20) are performed and increasing amounts of biotinylated fibromodulin peptides are then deposited (100 μl final in PBS) and the plate is incubated for 1 hour at 37° C. For the positive control, an antibody of goat anti-myostatin (≠AF788, R&D Systems), which was deposited in the control wells and incubated for 1 hour at 1/100th (0.1 mg/ml) was […]. The wells were then washed 5 times with PBS-Tween (0.05% Tween 20). […] After five washes, adding the peroxidase substrate, the TMB Substrate Reagent Set (Tetramehylbenzidine, OptEIA, ≠555214) allows the obtention of a colored reaction proportional to the quantity of HRP present in the wells. The reaction is stopped after 20 minutes by addition of sulfuric acid 2N, and the plate is read at 450 nm on a Discovery HT-R spectrophotometer (Bio-TEK).

binding result: no binding
B1: Peptide Biotine-69-101 mFibromoduline mutated (Fmod mutated) (peptide)
peptide: Biotin-PPPEPRDCPQEADAPPNFPTAMYADNRNLKYLP-NH2
SMILES: CSCC[C@H](NC(=O)[C@H](C)NC(=O)[C@@H](NC(=O)[C@@H]1CCCN1C(=O)[C@H](Cc1ccccc1)NC(=O)[C@H](CC(N)=O)NC(=O)[C@@H]1CCCN1C(=O)[C@@H]1CCCN1C(=O)[C@H](C)NC(=O)[C@H](CC(=O)O)NC(=O)[C@H](C)NC(=O)[C@H](CCC(=O)O)NC(=O)[C@H](CCC(N)=O)NC(=O)[C@@H]1CCCN1C(=O)[C@H](CS)NC(=O)[C@H](CC(=O)O)NC(=O)[C@H](CCCNC(=N)N)NC(=O)[C@@H]1CCCN1C(=O)[C@H](CCC(=O)O)NC(=O)[C@@H]1CCCN1C(=O)[C@@H]1CCCN1C(=O)[C@@H]1CCCN1C(=O)CCCC[C@@H]1SC[C@@H]2NC(=O)N[C@@H]21)[C@@H](C)O)C(=O)N[C@@H](Cc1ccc(O)cc1)C(=O)N[C@@H](C)C(=O)N[C@@H](CC(=O)O)C(=O)N[C@@H](CC(N)=O)C(=O)N[C@@H](CCCNC(=N)N)C(=O)N[C@@H](CC(N)=O)C(=O)N[C@@H](CC(C)C)C(=O)N[C@@H](CCCCN)C(=O)N[C@@H](Cc1ccc(O)cc1)C(=O)N[C@@H](CC(C)C)C(=O)N1CCC[C@H]1C(N)=O
notes: also called mutated biotin mFmod peptide

— patent US20140323400A1 (ASSOCIATION FRANCAISE CONTRE LES MYOPATHIES, published 2014)
